Experimental data published in patent US20090325873A1, “HUMAN GLP-1 MIMETIBODIES, COMPOSITIONS, METHODS AND USES” (CENTOCOR, INC., priority 2006, published 2009).

Biological target: GLP-1R on Rinm cells
Assay: cell-based or functional assay

## GLP-1 peptide (from UniProt P01275 98-127)
  cAMP activity in Rinm cells, EC50: 0.4 nM
